Measured values published in the RNAGym collection of RNA variant scans (doi:10.7554/elife.90254).

B1: OR4K15 (parent)
chain: GUUAACGGUCAUAGGCCAUGGAAACUAGGAGCACCAUUUCGCUGCCAGUGAAGAAAUGAACAAAGAAAAUCUGGGCCAGGCAGGCAUCAAAAGAAAUAGUCUUGCGCUCAACCAGAAAGUCUGUAAUCAUUUUAAGGGUA

Variants of: B1
Assay: self-cleavage, relative activity (ratio to wild type); higher = more cleavage; in vitro, sequencing; the parent is a self-cleaving ribozyme

Variant | self-cleavage
A86G U124C | 0.3
A82G G83U | 0.08
C85U U102C | 0.67
A82U U139A | 0.18
U87C A110G | 0.1
U87C A110C | 0.12
A86U A90G | 1.3
A82G U122C | 0.24
A89G A117G | 1.73
U87C C112U | 0.02
U87C C112G | 0.02
U87C A134G | 1.63
A82G A86G | 0.14
A82C A89C | 0.16
G83C | 0.35
G83A | 1.55
G83U | 0.45
U87C A91U | 1.35
U87C A91G | 1.06
G83A A94G | 1.79
A86G A95G | 1.72
C85A A134G | 1.83
U87C A114U | 0.09
C88U | 1.83

Variant | self-cleavage
C88A | 1.78
A89G U139G | 1.4
U87C A89U | 0.65
U87A A114U | 0.1
U87A A114C | 0.05
U87A A114G | 0.08
A86G U127C | 1.22
A86G U127A | 1.76
G83A U122A | 1.13
G84C U122C | 0.23
C88U U139A | 1.67
A82U A96U | 0.25
A82U A96G | 0.24
A89G U102C | 1.68
C88U A111G | 0.04
A89G A91G | 1.49
C85U A90C | 1.2
G84C | 0.29
G84A | 2.05
G84U | 0.7
G84A U122C | 2.09
C85U U131C | 0.69
A82U U87A | 0.02
A86U U133C | 2.71

Variant | self-cleavage
U87C U127A | 2.12
U87C U127C | 0.64
A82G A117G | 0.85
C85U A125U | 1.35
A86G U108A | 0.01
A82G A118U | 0.44
A82G A118G | 0.14
A89G G115U | 0.11
A82G U100C | 1.36
A89C A116U | 0.32
A89C A116G | 0.19
A86G A125G | 0.45
A86G A125U | 0.14
C85U U103C | 0.34
U87G A111G | 0.02
U87A A94U | 1.52
A82G A94U | 0.64
A82G A94G | 0.32
G83A A89G | 1.56
A89G A111G | 0.02
A89C A91G | 0.72
A86G A116U | 0.36
C81U A129U | 0.16
A86G U130A | 1.55

Variant | self-cleavage
A86G U130C | 1.2
A89G C101U | 0.29
A82U U102C | 0.33
C85U U108C | 0.04
C85U U108G | 0.01
A82G A116U | 0.07
A86G A117G | 1.45
A86G A117U | 1.45
A86U C105U | 0.27
A89G U127C | 1.03
U87A A135G | 2.03
A89C A118G | 0.51
G84A U103C | 0.82
A89C U120C | 0.75
C81G | 0.2
C81U | 0.35
A86U U103C | 1.31
U87A U100G | 2.13
G83A A135G | 1.3
C88U U127C | 2.09
A82G U87C | 0.46
A82G U87A | 0.32
U87C A135G | 1.81
U87C A111U | 0.07

Variant | self-cleavage
C85A A98U | 1.17
A82C A96G | 0.11
A86U U131C | 1.77
A86C A94U | 1.15
A86C A94G | 0.32
A82U A140U | 0.24
G83A A90G | 1.34
C85U U87C | 1.47
U87G A95G | 1.11
A86G A92G | 1.07
A86G A129C | 1.29
A86G A129G | 0.22
A82G C109A | 0.05
U87A U102C | 1.71
A89G A98G | 0.67
U87A U108C | 0.02
U87C U102C | 2.08
A82C U120C | 0.11
A89G A129G | 1.06
A82G A129G | 0.47
A82U A90G | 0.33
A82U A90U | 0.08
A82G A95G | 1.23
U87A A91G | 1.33

Variant | self-cleavage
A86G A135G | 0.99
G83U A135G | 0.56
A89G U122A | 1
U87C A118C | 0.4
A82G C112U | 0
A86U A96G | 1.68
A86U A135U | 2.32
A86U A135G | 2.44
C88U A140G | 2.02
A89G A134G | 1.64
G84U C88U | 0.52
C81G U127C | 0.04
U87C C105U | 0.13
U87C C105A | 0.02
A89G G119C | 1.62
A82U U127C | 0.13
C81A A126G | 0.17
A86U A91G | 1.93
A89G C105U | 0.07
A82G C85U | 0.32
C81U A82G | 0.14
A86G A94G | 1.47
U87C A140G | 1.49
A86U A118G | 1.33

Variant | self-cleavage
A86U U132C | 1.71
A89C U132A | 1.97
G84A A135G | 2.3
A89G A114U | 0.12
A89G A114G | 0.36
G84A U127C | 2.46
U87A G106C | 0.01
U87C A116C | 0.06
U87C A116G | 0.55
A86C U130C | 0.29
G84C U127C | 0.22
A82G U127C | 0.22
G83A A140U | 2.25
U87C C88A | 0.75
G84A A126G | 0.87
A89G G123A | 1.52
U87C A125G | 0.41
U87C A125U | 1.74
A89C A117U | 0.98
U87A U131C | 1.67
A89G A140C | 0.99
A89G A140G | 1.55
A89G A140U | 1.23
